Experimental data published in the RNAGym collection of RNA variant scans (doi:10.1021/acssynbio.7b00057).

B1: Pistol ribozyme (parent)
chain: GGGUCGUUGUUCCAUAAUCGCGUGGAUAUGGCACGCAAGUUUCUACCGGGCACCGUAAAUGUCCGACUGGAGCCGUUCGGGCGGCUAUAAACAGACCUCAGGCCCGAAGCGUGGCGGCACCUGCCGCCGGUGGUAAAAAAGAUCGGAAGAGCACACGUCU

Variants of: B1
Test: aptazyme ON/OFF ratio, guanine; higher = stronger switching; co-transcriptional cleavage with and without guanine

Row | Variant | aptazyme ON/OFF ratio
1 | GGGUCGAGUUUCAAUAAUCGCGUGGAUAUGGCACGCAAGUUUCUACCGGGCACCGUAAAUGUCCGACUGGAGCCGUUCGGGCGGCUAUAAACAGACCUCAGGCCCGAAGCGUGGCGGCACCUGCCGCCGGUGGUAAAAAAGAUCGGAAGAGCACACGUCU | 1.25
2 | GGGUCGAGUUUCUAUAAUCGCGUGGAUAUGGCACGCAAGUUUCUACCGGGCACCGUAAAUGUCCGACUGGAGCCGUUCGGGCGGCUAUAAACAGACCUCAGGCCCGAAGCGUGGCGGCACCUGCCGCCGGUGGUAAAAAAGAUCGGAAGAGCACACGUCU | 1.96
3 | GGGUCGAGUUUCGAUAAUCGCGUGGAUAUGGCACGCAAGUUUCUACCGGGCACCGUAAAUGUCCGACUGGAGCCGUUCGGGCGGCUAUAAACAGACCUCAGGCCCGAAGCGUGGCGGCACCUGCCGCCGGUGGUAAAAAAGAUCGGAAGAGCACACGUCU | 1.14
4 | GGGUCGAGUUUGGAUAAUCGCGUGGAUAUGGCACGCAAGUUUCUACCGGGCACCGUAAAUGUCCGACUGGAGCCGUUCGGGCGGCUAUAAACAGACCUCAGGCCCGAAGCGUGGCGGCACCUGCCGCCGGUGGUAAAAAAGAUCGGAAGAGCACACGUCU | 1.4
5 | GGGUCGAGUUUGAAUAAUCGCGUGGAUAUGGCACGCAAGUUUCUACCGGGCACCGUAAAUGUCCGACUGGAGCCGUUCGGGCGGCUAUAAACAGACCUCAGGCCCGAAGCGUGGCGGCACCUGCCGCCGGUGGUAAAAAAGAUCGGAAGAGCACACGUCU | 1.22
6 | GGGUCGAGUUUGUAUAAUCGCGUGGAUAUGGCACGCAAGUUUCUACCGGGCACCGUAAAUGUCCGACUGGAGCCGUUCGGGCGGCUAUAAACAGACCUCAGGCCCGAAGCGUGGCGGCACCUGCCGCCGGUGGUAAAAAAGAUCGGAAGAGCACACGUCU | 1.33
7 | GGGUCGAGUAAGUAUAAUCGCGUGGAUAUGGCACGCAAGUUUCUACCGGGCACCGUAAAUGUCCGACUGGAGCCGUUCGGGCGGCUAUAAACAGACCUCAGGCCCGAAGCGUGGCGGCACCUGCCGCCGGUGGUAAAAAAGAUCGGAAGAGCACACGUCU | 1.22
8 | GGGUCGAGUAAGAAUAAUCGCGUGGAUAUGGCACGCAAGUUUCUACCGGGCACCGUAAAUGUCCGACUGGAGCCGUUCGGGCGGCUAUAAACAGACCUCAGGCCCGAAGCGUGGCGGCACCUGCCGCCGGUGGUAAAAAAGAUCGGAAGAGCACACGUCU | 1.36
9 | GGGUCGAGUAAGGAUAAUCGCGUGGAUAUGGCACGCAAGUUUCUACCGGGCACCGUAAAUGUCCGACUGGAGCCGUUCGGGCGGCUAUAAACAGACCUCAGGCCCGAAGCGUGGCGGCACCUGCCGCCGGUGGUAAAAAAGAUCGGAAGAGCACACGUCU | 1.28
10 | GGGUCGAGUAUACAUAAUCGCGUGGAUAUGGCACGCAAGUUUCUACCGGGCACCGUAAAUGUCCGACUGGAGCCGUUCGGGCGGCUAUAAACAGACCUCAGGCCCGAAGCGUGGCGGCACCUGCCGCCGGUGGUAAAAAAGAUCGGAAGAGCACACGUCU | 1.45
11 | GGGUCGAGUAUGCAUAAUCGCGUGGAUAUGGCACGCAAGUUUCUACCGGGCACCGUAAAUGUCCGACUGGAGCCGUUCGGGCGGCUAUAAACAGACCUCAGGCCCGAAGCGUGGCGGCACCUGCCGCCGGUGGUAAAAAAGAUCGGAAGAGCACACGUCU | 1.45
12 | GGGUCGAGUAUUCAUAAUCGCGUGGAUAUGGCACGCAAGUUUCUACCGGGCACCGUAAAUGUCCGACUGGAGCCGUUCGGGCGGCUAUAAACAGACCUCAGGCCCGAAGCGUGGCGGCACCUGCCGCCGGUGGUAAAAAAGAUCGGAAGAGCACACGUCU | 1.4
13 | GGGUCGAGUAUCCAUAAUCGCGUGGAUAUGGCACGCAAGUUUCUACCGGGCACCGUAAAUGUCCGACUGGAGCCGUUCGGGCGGCUAUAAACAGACCUCAGGCCCGAAGCGUGGCGGCACCUGCCGCCGGUGGUAAAAAAGAUCGGAAGAGCACACGUCU | 1.18
14 | GGGUCGAGUAAAAAUAAUCGCGUGGAUAUGGCACGCAAGUUUCUACCGGGCACCGUAAAUGUCCGACUGGAGCCGUUCGGGCGGCUAUAAACAGACCUCAGGCCCGAAGCGUGGCGGCACCUGCCGCCGGUGGUAAAAAAGAUCGGAAGAGCACACGUCU | 1.24
15 | GGGUCGAGUAAAUAUAAUCGCGUGGAUAUGGCACGCAAGUUUCUACCGGGCACCGUAAAUGUCCGACUGGAGCCGUUCGGGCGGCUAUAAACAGACCUCAGGCCCGAAGCGUGGCGGCACCUGCCGCCGGUGGUAAAAAAGAUCGGAAGAGCACACGUCU | 1.42
16 | GGGUCGAGUAAAGAUAAUCGCGUGGAUAUGGCACGCAAGUUUCUACCGGGCACCGUAAAUGUCCGACUGGAGCCGUUCGGGCGGCUAUAAACAGACCUCAGGCCCGAAGCGUGGCGGCACCUGCCGCCGGUGGUAAAAAAGAUCGGAAGAGCACACGUCU | 1.25
17 | GGGUCGAGUAAACAUAAUCGCGUGGAUAUGGCACGCAAGUUUCUACCGGGCACCGUAAAUGUCCGACUGGAGCCGUUCGGGCGGCUAUAAACAGACCUCAGGCCCGAAGCGUGGCGGCACCUGCCGCCGGUGGUAAAAAAGAUCGGAAGAGCACACGUCU | 1.2
18 | GGGUCGAGUAAUCAUAAUCGCGUGGAUAUGGCACGCAAGUUUCUACCGGGCACCGUAAAUGUCCGACUGGAGCCGUUCGGGCGGCUAUAAACAGACCUCAGGCCCGAAGCGUGGCGGCACCUGCCGCCGGUGGUAAAAAAGAUCGGAAGAGCACACGUCU | 1.32

Row | Variant | aptazyme ON/OFF ratio
19 | GGGUCGAGUAAGCAUAAUCGCGUGGAUAUGGCACGCAAGUUUCUACCGGGCACCGUAAAUGUCCGACUGGAGCCGUUCGGGCGGCUAUAAACAGACCUCAGGCCCGAAGCGUGGCGGCACCUGCCGCCGGUGGUAAAAAAGAUCGGAAGAGCACACGUCU | 1.33
20 | GGGUCGAGUAUAGAUAAUCGCGUGGAUAUGGCACGCAAGUUUCUACCGGGCACCGUAAAUGUCCGACUGGAGCCGUUCGGGCGGCUAUAAACAGACCUCAGGCCCGAAGCGUGGCGGCACCUGCCGCCGGUGGUAAAAAAGAUCGGAAGAGCACACGUCU | 1.28
21 | GGGUCGAGUAUAAAUAAUCGCGUGGAUAUGGCACGCAAGUUUCUACCGGGCACCGUAAAUGUCCGACUGGAGCCGUUCGGGCGGCUAUAAACAGACCUCAGGCCCGAAGCGUGGCGGCACCUGCCGCCGGUGGUAAAAAAGAUCGGAAGAGCACACGUCU | 1.31
22 | GGGUCGAGUAUAUAUAAUCGCGUGGAUAUGGCACGCAAGUUUCUACCGGGCACCGUAAAUGUCCGACUGGAGCCGUUCGGGCGGCUAUAAACAGACCUCAGGCCCGAAGCGUGGCGGCACCUGCCGCCGGUGGUAAAAAAGAUCGGAAGAGCACACGUCU | 1.36
23 | GGGUCGAGUAUCAAUAAUCGCGUGGAUAUGGCACGCAAGUUUCUACCGGGCACCGUAAAUGUCCGACUGGAGCCGUUCGGGCGGCUAUAAACAGACCUCAGGCCCGAAGCGUGGCGGCACCUGCCGCCGGUGGUAAAAAAGAUCGGAAGAGCACACGUCU | 1.36
24 | GGGUCGAGUAUCUAUAAUCGCGUGGAUAUGGCACGCAAGUUUCUACCGGGCACCGUAAAUGUCCGACUGGAGCCGUUCGGGCGGCUAUAAACAGACCUCAGGCCCGAAGCGUGGCGGCACCUGCCGCCGGUGGUAAAAAAGAUCGGAAGAGCACACGUCU | 1.23
25 | GGGUCGAGUAUCGAUAAUCGCGUGGAUAUGGCACGCAAGUUUCUACCGGGCACCGUAAAUGUCCGACUGGAGCCGUUCGGGCGGCUAUAAACAGACCUCAGGCCCGAAGCGUGGCGGCACCUGCCGCCGGUGGUAAAAAAGAUCGGAAGAGCACACGUCU | 1.12
26 | GGGUCGAGUAUGUAUAAUCGCGUGGAUAUGGCACGCAAGUUUCUACCGGGCACCGUAAAUGUCCGACUGGAGCCGUUCGGGCGGCUAUAAACAGACCUCAGGCCCGAAGCGUGGCGGCACCUGCCGCCGGUGGUAAAAAAGAUCGGAAGAGCACACGUCU | 1.36
27 | GGGUCGAGUAUGGAUAAUCGCGUGGAUAUGGCACGCAAGUUUCUACCGGGCACCGUAAAUGUCCGACUGGAGCCGUUCGGGCGGCUAUAAACAGACCUCAGGCCCGAAGCGUGGCGGCACCUGCCGCCGGUGGUAAAAAAGAUCGGAAGAGCACACGUCU | 1.47
28 | GGGUCGAGUAUGAAUAAUCGCGUGGAUAUGGCACGCAAGUUUCUACCGGGCACCGUAAAUGUCCGACUGGAGCCGUUCGGGCGGCUAUAAACAGACCUCAGGCCCGAAGCGUGGCGGCACCUGCCGCCGGUGGUAAAAAAGAUCGGAAGAGCACACGUCU | 1.09
29 | GGGUCGAGUUUUCAUAAUCGCGUGGAUAUGGCACGCAAGUUUCUACCGGGCACCGUAAAUGUCCGACUGGAGCCGUUCGGGCGGCUAUAAACAGACCUCAGGCCCGAAGCGUGGCGGCACCUGCCGCCGGUGGUAAAAAAGAUCGGAAGAGCACACGUCU | 1.62
30 | GGGUCGAGUAUUUAUAAUCGCGUGGAUAUGGCACGCAAGUUUCUACCGGGCACCGUAAAUGUCCGACUGGAGCCGUUCGGGCGGCUAUAAACAGACCUCAGGCCCGAAGCGUGGCGGCACCUGCCGCCGGUGGUAAAAAAGAUCGGAAGAGCACACGUCU | 1.31
31 | GGGUCGAGUAUUAAUAAUCGCGUGGAUAUGGCACGCAAGUUUCUACCGGGCACCGUAAAUGUCCGACUGGAGCCGUUCGGGCGGCUAUAAACAGACCUCAGGCCCGAAGCGUGGCGGCACCUGCCGCCGGUGGUAAAAAAGAUCGGAAGAGCACACGUCU | 1.32
32 | GGGUCGAGUAUUGAUAAUCGCGUGGAUAUGGCACGCAAGUUUCUACCGGGCACCGUAAAUGUCCGACUGGAGCCGUUCGGGCGGCUAUAAACAGACCUCAGGCCCGAAGCGUGGCGGCACCUGCCGCCGGUGGUAAAAAAGAUCGGAAGAGCACACGUCU | 1.36
33 | GGGUCGAGUAACCAUAAUCGCGUGGAUAUGGCACGCAAGUUUCUACCGGGCACCGUAAAUGUCCGACUGGAGCCGUUCGGGCGGCUAUAAACAGACCUCAGGCCCGAAGCGUGGCGGCACCUGCCGCCGGUGGUAAAAAAGAUCGGAAGAGCACACGUCU | 2.58
34 | GGGUCGAGUUUUAAUAAUCGCGUGGAUAUGGCACGCAAGUUUCUACCGGGCACCGUAAAUGUCCGACUGGAGCCGUUCGGGCGGCUAUAAACAGACCUCAGGCCCGAAGCGUGGCGGCACCUGCCGCCGGUGGUAAAAAAGAUCGGAAGAGCACACGUCU | 1.64
35 | GGGUCGAGUUUUGAUAAUCGCGUGGAUAUGGCACGCAAGUUUCUACCGGGCACCGUAAAUGUCCGACUGGAGCCGUUCGGGCGGCUAUAAACAGACCUCAGGCCCGAAGCGUGGCGGCACCUGCCGCCGGUGGUAAAAAAGAUCGGAAGAGCACACGUCU | 1.17
36 | GGGUCGAGUUUUUAUAAUCGCGUGGAUAUGGCACGCAAGUUUCUACCGGGCACCGUAAAUGUCCGACUGGAGCCGUUCGGGCGGCUAUAAACAGACCUCAGGCCCGAAGCGUGGCGGCACCUGCCGCCGGUGGUAAAAAAGAUCGGAAGAGCACACGUCU | 1.26
